Assay results reported in the supplement of paper PMC9170038.

Test system: MS2 coat protein
Test: apparent KD of MS2 coat protein; designed switch direction (-1 OFF switch, 1 ON switch): -1; higher = weaker reporter binding
Outline: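 SNAP-549-labelled MS2 coat protein was titrated, doubling from 0.7 or 1.5 nM to 3 µM, over designed RNA switches transcribed on Illumina chips by stalled E. coli RNA polymerase. Runs were done without input, with 200 uM small-molecule ligand, or with an oligonucleotide input. Apparent KD is the per-design median over clusters of curve-fitted normalised fluorescence.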

[1] = Eterna round: R95, input ligand: FMN 200 uM
[2] = Eterna round: R95, input ligand: microRNA oligo, concentration not stated
[3] = Eterna round: R95, input ligand: none
[4] = input ligand: microRNA oligo, concentration not stated

Sequence	apparent KD of MS2 coat protein (input ligand: FMN 200 uM) [nM]	apparent KD of MS2 coat protein (input ligand: none) [nM]	apparent KD of MS2 coat protein [1] [nM]	apparent KD of MS2 coat protein [2] [nM]	apparent KD of MS2 coat protein [3] [nM]	apparent KD of MS2 coat protein [4] [nM]
CCUCAGAUGUAGGAUAUCGCCCAGACAUUGCGGCGAGAAGGACAAACAUGAGGAUCACCCAUGUUAGUUUAGCA [Eternabot (L2) Solution 92] (Eterna round: R97, puzzle: Exclusion 6)	257	32.3				
GGUAGCUGAGGAUAUGCAGACGACCCUCAGUGCUGGCUUGCACAUGAGGAUCACCCAUGUAGAAGGCAGAAGCU [Eternabot (L2) Solution 5] (Eterna round: R97, puzzle: Exclusion 2)	56	57.5				
AGAAAGGCCCAUGGCCGCAAGCUUUUUGCUUGUCUUACCACAUGAGGAUCACCCAUGUGACAUGGGCUCCUGAUAAU [Atveuser] (puzzle: Sensor v3, turn-off variant 2)			14.3	10.4	13.3	
ACAAGCUUUUAGAUUUUCAACAUGAGGAUCACCCAUGUUCGUCUUAGGCUAGUGCGAGUGCGGUGUACUCGUAUUAG [JL TOV1 3.84 sellena mod] (Eterna round: R97, puzzle: Sensor, turn-off variant 1)	18.2	16.4				
AAAACACAUGAGGAUCACCCAUGUGAGGAUAUGUUAAUUUCGGCCAAAGCCGAAAUUAACAGAAGGCACAUAAA [JR_Exclusion1_Sub019] (puzzle: Exclusion 1)				46		
AAGUACCGUCACGAUAGUGAUGGUACAACAAGCAAAUAUACAUGAGGAUCACCCAUGUCCUCUUUUGCUCGUCUUGU [Sensor 3] (puzzle: Sensor v3, turn-off variant 2)			798	237	900	
CAGUGCUGACGGAGAUCCAACAUGAGGAUCACCCAUGUCUCAAAAGCUUUUUGCUCGUCUUAUCCUCCUCAGUACUC [Mat - Sensor, turn-off var - Eli Mod - D57] (Eterna round: R97, puzzle: Sensor, turn-off variant 1)	14.6	19.2				
UCUAGACAUGAGGAUCACCCAUGUGAGGAUAUGAUGCGAUCGUCGAAAGACGAUAGCAUCAGAAGGCACAUAUG [Fiskers Ex 1 - 4] (puzzle: Exclusion 1)				117		
AAGAUGCGGAUAGGAUAUGGAAAGAAGGAAAGACCAGAAGGAUUGGUCAUAUAACAUGAGGAUCACCCAUGUAUAUGUUGUGAA [AK ExNG1-3.1] (Eterna round: R96, puzzle: Exclusion NG 1)						13
CAGUACUGAGGAUAUACAUGAGGAUCACCCAUGUGUAGAUGAAAAUUAAUUUUAUUAUGUAGAAGGCGGUGCUG [JR_Ex3_Sub045] (Eterna round: R97, puzzle: Exclusion 3)	85.1	23.3				
UGGUGGAAGCAGGAUAUGCUUGUAUUAUUGAUUGCAGAAGGGCUAACAUGAGGAUCACCCAUGUAAGAGGUGUU [JR_E6_Sub056] (puzzle: Exclusion 6)			303	289	327	
ACGAAACAUGAGGAUCACCCAUGUGAGGAUAUGUAAAUAGUAAACAAAUAAGAAAUAAACAGAAGGCACACAGG [JR_Exclusion1_Sub004] (puzzle: Exclusion 1)			57.2	26.3	28.2	
CUAAAUCAUGUAGGAUAUGCGUGGCGAAGCUAUGCAGAAGGACAUGAGGAUCACCCAUGUGCUUCCGUCUGCGUACAGACGGUA [JL ENG1 1.16] (Eterna round: R96, puzzle: Exclusion NG 1)	136	83.3				59.7
AUCGUGCAGCAAAGCUGUACGAGUACAUGAGGAUCACCCAUGUAGGAUAUGGUACGCAAAGCGUGCUAGAAGGAUAUGAGAUUU [Mat - Exclusion NG 3 - Mod of JL - D100] (Eterna round: R96, puzzle: Exclusion NG 3)	55.4	45.2				27.8
